In patent US20240360214A1 (Pfizer, published 2024):

Key:
[1] = target: T1, LILRB2 expressed on THP1 cells (human, UniProt Q8N423 22-597); assay: flow cytometry competition with PE HLA-G tetramer on THP1-LILRB2 cells
T1 construct: whole, on cells; also called THP1 LILRB2 expressing cells; THP1-LILRB2 cells
Method: (§1) LILRB1 or LILRB2 overexpressing THP1 cells were prepared in FACS buffer (0.5% BSA in PBS) and seeded in 100 μl/well (96 well plate) at 1λ10⁶ cells/ml concentration. The tested antibodies were serially diluted 3-fold into assay buffer starting from 200 nM. 40 μl of serial diluted antibody together with 40 μl of PE labelled HLA-G tetramer (FRED HUTCH IMT40509) at 2 ug/ml were added to each well and incubated on ice for 1 hour. The cells were washed 2 times with FACS buffer and resuspended in 50 μl/well FACS buffer containing 1:1000 dilution of LIVE/Dead fixable violet dead cell stain (Invitrogen #L34964), incubated on ice for 15 minutes. The cells were then washed with FACS buffer for 2 times and resuspended in 80 μl of Cytofix buffer (BD Cat #554655).
(§2) The cell-based HLA-G ligand blocking assays followed the same procedure as described in Example 2.

[2] = target: T2, LILRB1 expressed on THP1 cells (human, UniProt Q8NHL6 24-650); assay: flow cytometry competition with PE HLA-G tetramer on THP1-LILRB1 cells
T2 construct: whole, on cells; also called THP1 LILRB1 expressing cells; THP1-LILRB1 cells
T2 sequence (Q8NHL6 24-650): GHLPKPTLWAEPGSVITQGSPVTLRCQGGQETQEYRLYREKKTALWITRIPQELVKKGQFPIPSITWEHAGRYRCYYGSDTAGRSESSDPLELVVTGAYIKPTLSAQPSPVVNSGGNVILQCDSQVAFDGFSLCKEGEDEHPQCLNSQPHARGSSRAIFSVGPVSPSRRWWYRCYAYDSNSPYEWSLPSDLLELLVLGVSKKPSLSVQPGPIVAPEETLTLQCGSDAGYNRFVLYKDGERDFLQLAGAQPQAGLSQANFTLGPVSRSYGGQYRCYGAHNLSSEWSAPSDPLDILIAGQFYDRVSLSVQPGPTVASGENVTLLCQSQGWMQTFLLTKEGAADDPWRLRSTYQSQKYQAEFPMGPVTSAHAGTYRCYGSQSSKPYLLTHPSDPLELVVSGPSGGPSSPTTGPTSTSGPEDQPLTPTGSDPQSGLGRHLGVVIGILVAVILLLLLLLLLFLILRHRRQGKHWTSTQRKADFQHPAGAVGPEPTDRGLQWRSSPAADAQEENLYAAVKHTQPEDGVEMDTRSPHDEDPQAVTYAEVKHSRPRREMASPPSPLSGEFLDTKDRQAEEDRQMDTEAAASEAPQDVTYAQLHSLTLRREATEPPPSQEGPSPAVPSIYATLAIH
Method: as §1, §2

T1 sequence (Q8N423 22-597): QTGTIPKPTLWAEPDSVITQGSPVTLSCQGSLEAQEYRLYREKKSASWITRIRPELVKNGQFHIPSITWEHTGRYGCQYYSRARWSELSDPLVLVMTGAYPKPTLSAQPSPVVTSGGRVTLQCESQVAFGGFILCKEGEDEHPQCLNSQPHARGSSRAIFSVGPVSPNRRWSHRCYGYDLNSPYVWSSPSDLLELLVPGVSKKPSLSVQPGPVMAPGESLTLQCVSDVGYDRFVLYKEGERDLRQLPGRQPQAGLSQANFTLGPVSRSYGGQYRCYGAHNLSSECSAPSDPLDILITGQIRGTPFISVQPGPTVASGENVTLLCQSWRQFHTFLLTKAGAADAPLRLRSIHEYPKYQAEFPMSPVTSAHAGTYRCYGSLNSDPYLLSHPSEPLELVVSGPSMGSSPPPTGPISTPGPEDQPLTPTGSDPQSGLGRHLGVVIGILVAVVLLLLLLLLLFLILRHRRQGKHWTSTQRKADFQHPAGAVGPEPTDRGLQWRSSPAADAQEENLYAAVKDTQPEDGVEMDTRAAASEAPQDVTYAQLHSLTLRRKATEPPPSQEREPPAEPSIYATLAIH

IC50 [1]: 16.1 nM
IC50 [2]: 43.2 nM
B1: LILRB1xLILRB2 bispecific antibody BsAb-1880 (bispecific antibody, human IgG1)
heavy 1: not shown
light 1: SYELTQPPSVSVSPGQTASITCGGNNIGSKGVHWYQQKPGQSPVLVISYDSDRPSGIPERFSGSNSGNTATLTISGTQAMDEADYYCQVWDSSTRVFGTGTKVTVLGQPKAAPSVTLFPPSSEELQANKATLVCLISDFYPGAVTVAWKADSSPVKAGVETTTPSKQSNNKYAASSYLSLTPEQWKSHRSYSCQVTHEGSTVEKTVAPTECS
heavy 2: EVQLLESGGGLVQPGGSLRLSCAASGFTFSSYAMSWVRQAPGKGLEWVSAISGSGGSTYYADSVKGRFTISRDNSKNTLYLQMNSLRAEDTAVYYCWRWLNLGDAFDIWGQGTMVTVSSASTKGPSVFPLAPSSKSTSGGTAALGCLVKDYFPEPVTVSWNSGALTSGVHTFPAVLQSSGLYSLSSVVTVPSSSLGTQTYICNVNHKPSNTKVDKKVEPKSCEKTHTCPPCPAPEAAGAPSVFLFPPKPKDTLMISRTPEVTCVVVDVSHEDPEVKFNWYVDGVEVHNAKTKPREEQYNSTYRVVSVLTVLHQDWLNGKEYKCKVSNKALPAPIEKTISKAKGQPREPQVYTLPPSREEMTKNQVSLTCEVKGFYPSDIAVEWESNGQPENNYKTTPPVLDSDGSFFLYSKLTVDKSRWQQGNVFSCSVMHEALHNHYTQKSLSLSPGK
light 2: not shown
